Bridges are numbered along the chain shown (N, C = ends). [ ]: non-standard residue; d: D form. Trp(7-Me) = Cc1cccc2c(C[C@H](N)C(=O)O)c[nH]c12; 2Nal = N[C@@H](Cc1ccc2ccccc2c1)C(=O)O; AEF = NCCOc1ccc(C[C@H](N)C(=O)O)cc1; αMeF = C[C@](N)(Cc1ccccc1)C(=O)O; Pen = CC(C)(S)[C@H](N)C(=O)O; αMeK = C[C@](N)(CCCCN)C(=O)O; Ac5c = NC1(C(=O)O)CCCC1; Thp = NC1(C(=O)O)CCOCC1
T1: human IL-23R (interleukin-23 receptor) (human, UniProt Q5VWK5 24-629)
T1 sequence (looked up): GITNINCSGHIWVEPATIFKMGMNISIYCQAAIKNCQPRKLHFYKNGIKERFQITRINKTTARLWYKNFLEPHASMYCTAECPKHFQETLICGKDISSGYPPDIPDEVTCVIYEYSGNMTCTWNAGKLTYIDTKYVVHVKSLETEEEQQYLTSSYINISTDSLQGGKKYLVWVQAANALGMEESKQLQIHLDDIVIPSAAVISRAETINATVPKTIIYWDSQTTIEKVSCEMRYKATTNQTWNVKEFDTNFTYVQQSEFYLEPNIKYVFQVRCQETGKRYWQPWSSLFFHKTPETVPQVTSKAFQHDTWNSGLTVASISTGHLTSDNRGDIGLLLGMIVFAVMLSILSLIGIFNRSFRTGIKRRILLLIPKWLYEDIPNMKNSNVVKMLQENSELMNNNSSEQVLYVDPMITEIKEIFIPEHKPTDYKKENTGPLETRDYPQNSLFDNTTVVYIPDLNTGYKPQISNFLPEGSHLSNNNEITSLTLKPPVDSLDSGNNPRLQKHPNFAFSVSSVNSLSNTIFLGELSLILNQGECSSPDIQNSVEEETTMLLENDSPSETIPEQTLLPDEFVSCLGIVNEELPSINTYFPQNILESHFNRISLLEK

B1: Compound No. 100 (peptide)
peptide: Ac-[Pen]NT[Trp(7-Me)]K(Ac)[Pen][AEF][2Nal][αMeK]K(Ac)N[αMeF][dY]-NH2
modifications: disulfide 1-6
SMILES: CC(=O)NCCCC[C@@H]1NC(=O)[C@H](Cc2c[nH]c3c(C)cccc23)NC(=O)[C@H]([C@@H](C)O)NC(=O)[C@H](CC(N)=O)NC(=O)[C@@H](NC(C)=O)C(C)(C)SSC(C)(C)[C@@H](C(=O)N[C@@H](Cc2ccc(OCCN)cc2)C(=O)N[C@@H](Cc2ccc3ccccc3c2)C(=O)N[C@@](C)(CCCCN)C(=O)N[C@@H](CCCCNC(C)=O)C(=O)N[C@@H](CC(N)=O)C(=O)N[C@@](C)(Cc2ccccc2)C(=O)N[C@H](Cc2ccc(O)cc2)C(N)=O)NC1=O
B2: Compound No. 98 (peptide)
peptide: Ac-[Pen]NTWK(Ac)[Pen][AEF][2Nal][αMeK]K(Ac)N[αMeF]-NH2
modifications: disulfide 1-6
SMILES: CC(=O)NCCCC[C@@H]1NC(=O)[C@H](Cc2c[nH]c3ccccc23)NC(=O)[C@H]([C@@H](C)O)NC(=O)[C@H](CC(N)=O)NC(=O)[C@@H](NC(C)=O)C(C)(C)SSC(C)(C)[C@@H](C(=O)N[C@@H](Cc2ccc(OCCN)cc2)C(=O)N[C@@H](Cc2ccc3ccccc3c2)C(=O)N[C@@](C)(CCCCN)C(=O)N[C@@H](CCCCNC(C)=O)C(=O)N[C@@H](CC(N)=O)C(=O)N[C@@](C)(Cc2ccccc2)C(N)=O)NC1=O
B3: Compound No. 99 (peptide)
peptide: Ac-[dR][Pen]NT[Trp(7-Me)]Q[Pen][AEF][2Nal][Ac5c]EN[Thp]-NH2
modifications: disulfide 2-7
SMILES: CC(=O)N[C@H](CCCNC(=N)N)C(=O)N[C@@H]1C(=O)N[C@@H](CC(N)=O)C(=O)N[C@@H]([C@@H](C)O)C(=O)N[C@@H](Cc2c[nH]c3c(C)cccc23)C(=O)N[C@@H](CCC(N)=O)C(=O)N[C@H](C(=O)N[C@@H](Cc2ccc(OCCN)cc2)C(=O)N[C@@H](Cc2ccc3ccccc3c2)C(=O)NC2(C(=O)N[C@@H](CCC(=O)O)C(=O)N[C@@H](CC(N)=O)C(=O)NC3(C(N)=O)CCOCC3)CCCC2)C(C)(C)SSC1(C)C
B4: Compound No. 102 (peptide)
peptide: Ac-[dR][Pen]NTWK(Ac)[Pen][AEF][2Nal][Ac5c]EN[αMeF]-NH2
modifications: disulfide 2-7
SMILES: CC(=O)NCCCC[C@@H]1NC(=O)[C@H](Cc2c[nH]c3ccccc23)NC(=O)[C@H]([C@@H](C)O)NC(=O)[C@H](CC(N)=O)NC(=O)[C@@H](NC(=O)[C@@H](CCCNC(=N)N)NC(C)=O)C(C)(C)SSC(C)(C)[C@@H](C(=O)N[C@@H](Cc2ccc(OCCN)cc2)C(=O)N[C@@H](Cc2ccc3ccccc3c2)C(=O)NC2(C(=O)N[C@@H](CCC(=O)O)C(=O)N[C@@H](CC(N)=O)C(=O)N[C@@](C)(Cc3ccccc3)C(N)=O)CCCC2)NC1=O
B5: Compound No. 101 (peptide)
peptide: Ac-[dR][Pen]NT[Trp(7-Me)]K(Ac)[Pen][AEF][2Nal][Ac5c]EN[Thp]-NH2
modifications: disulfide 2-7
SMILES: CC(=O)NCCCC[C@@H]1NC(=O)[C@H](Cc2c[nH]c3c(C)cccc23)NC(=O)[C@H]([C@@H](C)O)NC(=O)[C@H](CC(N)=O)NC(=O)[C@@H](NC(=O)[C@@H](CCCNC(=N)N)NC(C)=O)C(C)(C)SSC(C)(C)[C@@H](C(=O)N[C@@H](Cc2ccc(OCCN)cc2)C(=O)N[C@@H](Cc2ccc3ccccc3c2)C(=O)NC2(C(=O)N[C@@H](CCC(=O)O)C(=O)N[C@@H](CC(N)=O)C(=O)NC3(C(N)=O)CCOCC3)CCCC2)NC1=O

Target: T1, human IL-23R (interleukin-23 receptor)
Assay: cell-based or functional assay

| PBMC pSTAT3 IC50 (nM) | Binder |
| --- | --- |
| 21 nM | B1 |
| 15 nM | B2 |
| 4.2 nM | B3 |
| 8.4 nM | B4 |
| 0.74 nM | B5 |
